Protein,"% of WT kcat/KM (Factor X (FX), P00742)","kcat (s^-1) of FX activation by FIXa variant in the Xase complex (FVIIIa, PC/PS vesicles, Ca2+), fluorogenic FXa read-out (Factor X (FX), P00742)","kcat/KM for FX activation (Xase: FVIIIa, PC/PS vesicles, Ca2+) (Factor X (FX), P00742)","KM (Factor X, P00742)","KM (Factor X (FX), P00742)","% of WT kcat/KM (Factor X, P00742)","kcat (Factor X, P00742)","kcat/KM (Factor X, P00742)","kcat of FX activation by FIXa (Xase complex with FVIIIa, PC/PS vesicles, Ca2+) (Factor X (FX), P00742)","catalytic activity (kcat/KM) for activation of FX (Factor X (FX), P00742)"
FIXa-Y155F/K247N/N249S/T343R/E410N (protein) chain 1: YNSGKLEEFVQGNLERECMEEKCSFEEAREVFENTERTTEFWKQYVDGDQCESNPCLNGGSCKDDINSYECWCPFGFEGKNCELDVTCNIKNGRCEQFCKNSADNKVVCSCTEGYRLAENQKSCEPAVPFPCGRVSVSQTSKLTR chain 2: VVGGEDAKPGQFPWQVVLNGKVDAFCGGSIVNEKWIVTAAHCVETGVKITVVAGEHNIEETEHTEQNRSVIRIIPHHNYNAAINKYNHDIALLELDEPLVLNSYVTPICIADKEYTNIFLKFGSGYVSGWGRVFHKGRSALVLQYLRVPLVDRATCLRSTKFRIYNNMFCAGFHEGGRDSCQGDSGGPHVTEVEGTSFLTGIISWGEECAMKGKYGIYTKVSRYVNWIKNKTKLT,599%,7.9 s⁻¹,2.8e+08 M⁻¹ s⁻¹,0.0344 µM,,,,,,
FIXa-Y155F/K247N/N249S/R318Y/R338E/T343R/R403E/E410N (protein) chain 1: YNSGKLEEFVQGNLERECMEEKCSFEEAREVFENTERTTEFWKQYVDGDQCESNPCLNGGSCKDDINSYECWCPFGFEGKNCELDVTCNIKNGRCEQFCKNSADNKVVCSCTEGYRLAENQKSCEPAVPFPCGRVSVSQTSKLTR chain 2: VVGGEDAKPGQFPWQVVLNGKVDAFCGGSIVNEKWIVTAAHCVETGVKITVVAGEHNIEETEHTEQNRSVIRIIPHHNYNAAINKYNHDIALLELDEPLVLNSYVTPICIADKEYTNIFLKFGSGYVSGWGRVFHKGYSALVLQYLRVPLVDRATCLESTKFRIYNNMFCAGFHEGGRDSCQGDSGGPHVTEVEGTSFLTGIISWGEECAMKGKYGIYTKVSEYVNWIKNKTKLT,,,,,0.0257 µM,864%,9.7 s⁻¹,4e+08 M⁻¹ s⁻¹,,
FIXa-Y155F/R318Y/T343R/E410N (protein) chain 1: YNSGKLEEFVQGNLERECMEEKCSFEEAREVFENTERTTEFWKQYVDGDQCESNPCLNGGSCKDDINSYECWCPFGFEGKNCELDVTCNIKNGRCEQFCKNSADNKVVCSCTEGYRLAENQKSCEPAVPFPCGRVSVSQTSKLTR chain 2: VVGGEDAKPGQFPWQVVLNGKVDAFCGGSIVNEKWIVTAAHCVETGVKITVVAGEHNIEETEHTEQKRNVIRIIPHHNYNAAINKYNHDIALLELDEPLVLNSYVTPICIADKEYTNIFLKFGSGYVSGWGRVFHKGYSALVLQYLRVPLVDRATCLRSTKFRIYNNMFCAGFHEGGRDSCQGDSGGPHVTEVEGTSFLTGIISWGEECAMKGKYGIYTKVSRYVNWIKNKTKLT,326%,5 s⁻¹,1.5e+08 M⁻¹ s⁻¹,0.0403 µM,,,,,,
FIXa-Y155F/R338E/T343R/E410N (protein) chain 1: YNSGKLEEFVQGNLERECMEEKCSFEEAREVFENTERTTEFWKQYVDGDQCESNPCLNGGSCKDDINSYECWCPFGFEGKNCELDVTCNIKNGRCEQFCKNSADNKVVCSCTEGYRLAENQKSCEPAVPFPCGRVSVSQTSKLTR chain 2: VVGGEDAKPGQFPWQVVLNGKVDAFCGGSIVNEKWIVTAAHCVETGVKITVVAGEHNIEETEHTEQKRNVIRIIPHHNYNAAINKYNHDIALLELDEPLVLNSYVTPICIADKEYTNIFLKFGSGYVSGWGRVFHKGRSALVLQYLRVPLVDRATCLESTKFRIYNNMFCAGFHEGGRDSCQGDSGGPHVTEVEGTSFLTGIISWGEECAMKGKYGIYTKVSRYVNWIKNKTKLT,761%,6 s⁻¹,3.5e+08 M⁻¹ s⁻¹,0.0224 µM,,,,,,
FIXa-K247N/N249S/R318Y/R338E/R403E (protein) chain 1: YNSGKLEEFVQGNLERECMEEKCSFEEAREVFENTERTTEFWKQYVDGDQCESNPCLNGGSCKDDINSYECWCPFGFEGKNCELDVTCNIKNGRCEQFCKNSADNKVVCSCTEGYRLAENQKSCEPAVPFPCGRVSVSQTSKLTR chain 2: VVGGEDAKPGQFPWQVVLNGKVDAFCGGSIVNEKWIVTAAHCVETGVKITVVAGEHNIEETEHTEQNRSVIRIIPHHNYNAAINKYNHDIALLELDEPLVLNSYVTPICIADKEYTNIFLKFGSGYVSGWGRVFHKGYSALVLQYLRVPLVDRATCLESTKFTIYNNMFCAGFHEGGRDSCQGDSGGPHVTEVEGTSFLTGIISWGEECAMKGKYGIYTKVSEYVNWIKEKTKLT,,,,,,496%,,2.3e+08 M⁻¹ s⁻¹,10.5 s⁻¹,
FIXa-Y155F/K247N/N249S/R403E/E410N (protein) chain 1: YNSGKLEEFVQGNLERECMEEKCSFEEAREVFENTERTTEFWKQYVDGDQCESNPCLNGGSCKDDINSYECWCPFGFEGKNCELDVTCNIKNGRCEQFCKNSADNKVVCSCTEGYRLAENQKSCEPAVPFPCGRVSVSQTSKLTR chain 2: VVGGEDAKPGQFPWQVVLNGKVDAFCGGSIVNEKWIVTAAHCVETGVKITVVAGEHNIEETEHTEQNRSVIRIIPHHNYNAAINKYNHDIALLELDEPLVLNSYVTPICIADKEYTNIFLKFGSGYVSGWGRVFHKGRSALVLQYLRVPLVDRATCLRSTKFTIYNNMFCAGFHEGGRDSCQGDSGGPHVTEVEGTSFLTGIISWGEECAMKGKYGIYTKVSEYVNWIKNKTKLT,53%,2.7 s⁻¹,2.4e+07 M⁻¹ s⁻¹,0.131 µM,,,,,,
FIXa-Y155F/K247N/N249S/R318Y/R338E/R403E (protein) chain 1: YNSGKLEEFVQGNLERECMEEKCSFEEAREVFENTERTTEFWKQYVDGDQCESNPCLNGGSCKDDINSYECWCPFGFEGKNCELDVTCNIKNGRCEQFCKNSADNKVVCSCTEGYRLAENQKSCEPAVPFPCGRVSVSQTSKLTR chain 2: VVGGEDAKPGQFPWQVVLNGKVDAFCGGSIVNEKWIVTAAHCVETGVKITVVAGEHNIEETEHTEQNRSVIRIIPHHNYNAAINKYNHDIALLELDEPLVLNSYVTPICIADKEYTNIFLKFGSGYVSGWGRVFHKGYSALVLQYLRVPLVDRATCLESTKFTIYNNMFCAGFHEGGRDSCQGDSGGPHVTEVEGTSFLTGIISWGEECAMKGKYGIYTKVSEYVNWIKEKTKLT,,,,,,206%,,9.5e+07 M⁻¹ s⁻¹,5.7 s⁻¹,
FIXa-R318Y/R338E/T343R/E410N (protein) chain 1: YNSGKLEEFVQGNLERECMEEKCSFEEAREVFENTERTTEFWKQYVDGDQCESNPCLNGGSCKDDINSYECWCPFGFEGKNCELDVTCNIKNGRCEQFCKNSADNKVVCSCTEGYRLAENQKSCEPAVPFPCGRVSVSQTSKLTR chain 2: VVGGEDAKPGQFPWQVVLNGKVDAFCGGSIVNEKWIVTAAHCVETGVKITVVAGEHNIEETEHTEQKRNVIRIIPHHNYNAAINKYNHDIALLELDEPLVLNSYVTPICIADKEYTNIFLKFGSGYVSGWGRVFHKGYSALVLQYLRVPLVDRATCLESTKFRIYNNMFCAGFHEGGRDSCQGDSGGPHVTEVEGTSFLTGIISWGEECAMKGKYGIYTKVSRYVNWIKNKTKLT,,,,,,728%,4.9 s⁻¹,3.4e+08 M⁻¹ s⁻¹,,displayed some of the greatest increases in catalytic activity
FIXa-Y155F/R338E/T343R/R403E/E410N (protein) chain 1: YNSGKLEEFVQGNLERECMEEKCSFEEAREVFENTERTTEFWKQYVDGDQCESNPCLNGGSCKDDINSYECWCPFGFEGKNCELDVTCNIKNGRCEQFCKNSADNKVVCSCTEGYRLAENQKSCEPAVPFPCGRVSVSQTSKLTR chain 2: VVGGEDAKPGQFPWQVVLNGKVDAFCGGSIVNEKWIVTAAHCVETGVKITVVAGEHNIEETEHTEQKRNVIRIIPHHNYNAAINKYNHDIALLELDEPLVLNSYVTPICIADKEYTNIFLKFGSGYVSGWGRVFHKGRSALVLQYLRVPLVDRATCLESTKFRIYNNMFCAGFHEGGRDSCQGDSGGPHVTEVEGTSFLTGIISWGEECAMKGKYGIYTKVSEYVNWIKNKTKLT,,,,,0.0259 µM,524%,5.7 s⁻¹,2.4e+08 M⁻¹ s⁻¹,,

# Source: patent US20210238260
# Sequence of Factor X, P00742 (P00742 whole entry, looked up): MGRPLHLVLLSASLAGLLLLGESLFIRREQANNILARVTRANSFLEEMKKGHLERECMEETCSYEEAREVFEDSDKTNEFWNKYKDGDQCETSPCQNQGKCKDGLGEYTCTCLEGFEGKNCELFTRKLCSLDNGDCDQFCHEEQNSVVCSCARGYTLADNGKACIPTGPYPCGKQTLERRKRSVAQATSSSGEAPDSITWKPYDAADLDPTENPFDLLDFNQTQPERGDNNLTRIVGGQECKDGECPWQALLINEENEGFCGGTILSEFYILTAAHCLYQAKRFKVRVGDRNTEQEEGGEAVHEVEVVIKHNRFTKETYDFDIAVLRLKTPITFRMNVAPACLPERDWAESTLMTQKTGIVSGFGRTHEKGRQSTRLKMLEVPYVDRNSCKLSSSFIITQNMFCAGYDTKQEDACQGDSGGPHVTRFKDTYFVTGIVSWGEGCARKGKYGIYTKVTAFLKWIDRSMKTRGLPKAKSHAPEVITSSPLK
# Sequence of Factor X (FX), P00742 (P00742 whole entry, looked up): as above
